Measurements reported in the supplement of paper PMC7125110.
± gives the standard error. Fewer inactive variants are shown than the library holds.

B1: glmS ribozyme (parent)
chain: AUAAAAGCGCCAGAACUACAGAAAUGUAGUUGACGAGGAGGAGGUUUAUCGAAUUUUCGGCGGAUGCCUCCAAA

Variants of: B1
Test: self-cleavage kobs at 2500 uM GlcN6P; higher = faster cleavage; RNA array
Conditions: with glucosamine-6-phosphate
In short: (§1)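 Glucosamine-6-phosphate, from 40 μM to 10 mM in HEPES/KCl/Mg(OAc)2 buffer, was flowed over sequenced MiSeq chips carrying barcoded ribozyme variants transcribed in situ by E. coli RNA polymerase. A hybridised Cy3 probe tracked the variants at 37 °C as tiles were imaged over ~14 h. kobs, kcat and KM were obtained by fitting normalised per-tile medians to exponential decays and then applying weighted Michaelis–Menten fits across concentrations.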
With A53G A64G C67G the “self-cleavage kobs at 2500 uM GlcN6P” value was 0.000335 ± 9.1e-05 s⁻¹. In the case of G59U G62C C71A, the “self-cleavage kobs at 2500 uM GlcN6P” value is reported as less than 1e-05 s⁻¹. In the case of G44A A48G C67G, the “self-cleavage kobs at 2500 uM GlcN6P” value is reported as 8.88e-05 ± 2.9e-05 s⁻¹. In the case of G43U U47G G59C, the “self-cleavage kobs at 2500 uM GlcN6P” value is reported as less than 1e-05 s⁻¹. For A52U C67A C71U, the “self-cleavage kobs at 2500 uM GlcN6P” value was 7.56e-05 ± 3.1e-05 s⁻¹. For G41A U46A G66A, the “self-cleavage kobs at 2500 uM GlcN6P” value was 9.01e-05 ± 3.1e-05 s⁻¹. In the case of A52G U57G C58U, the “self-cleavage kobs at 2500 uM GlcN6P” value is reported as 4.96e-05 ± 1.8e-05 s⁻¹. In the case of A48G C50G A52U, the “self-cleavage kobs at 2500 uM GlcN6P” value is reported as less than 1e-05 s⁻¹. For A52G C68U C70U, the “self-cleavage kobs at 2500 uM GlcN6P” value was 0.000745 ± 0.00024 s⁻¹. With G41C A42G C70A the “self-cleavage kobs at 2500 uM GlcN6P” value was 6.34e-05 ± 1.5e-05 s⁻¹. For A42U A53G C61G, the “self-cleavage kobs at 2500 uM GlcN6P” value was less than 1e-05 s⁻¹. For G43U G44A C50U C61G, the “self-cleavage kobs at 2500 uM GlcN6P” value was less than 1e-05 s⁻¹. With C67A C68U C70U the “self-cleavage kobs at 2500 uM GlcN6P” value was 2.78e-05 ± 1.3e-05 s⁻¹. With A48C U55C G63U the “self-cleavage kobs at 2500 uM GlcN6P” value was less than 1e-05 s⁻¹. G43A U54A was tested, and the “self-cleavage kobs at 2500 uM GlcN6P” value was 3.85e-05 ± 1.7e-05 s⁻¹. For G41A A53G U55A, the “self-cleavage kobs at 2500 uM GlcN6P” value was 0.000666 ± 0.00022 s⁻¹. For G63C A64C C67A, the “self-cleavage kobs at 2500 uM GlcN6P” value was less than 1e-05 s⁻¹. In the case of U46A U56G C58U G59U, the “self-cleavage kobs at 2500 uM GlcN6P” value is reported as less than 1e-05 s⁻¹. With U45A U47G G51U A64G U65G the “self-cleavage kobs at 2500 uM GlcN6P” value was less than 1e-05 s⁻¹. In the case of G51A A53C G62U, the “self-cleavage kobs at 2500 uM GlcN6P” value is reported as less than 1e-05 s⁻¹. For A52U C68U C70U, the “self-cleavage kobs at 2500 uM GlcN6P” value was 5.68e-05 ± 1.7e-05 s⁻¹. In the case of G43A U55C G59U C67G, the “self-cleavage kobs at 2500 uM GlcN6P” value is reported as less than 1e-05 s⁻¹. For U56A U57C C67A, the “self-cleavage kobs at 2500 uM GlcN6P” value was 4.71e-05 ± 2e-05 s⁻¹. For U45A U55C U57C, the “self-cleavage kobs at 2500 uM GlcN6P” value was 8.32e-05 ± 1.8e-05 s⁻¹. G43U A48U G62A C67A was tested, and the “self-cleavage kobs at 2500 uM GlcN6P” value was less than 1e-05 s⁻¹. With G43A G44A U47A G59C the “self-cleavage kobs at 2500 uM GlcN6P” value was less than 1e-05 s⁻¹. U45A U47A G59U C61A was tested, and the “self-cleavage kobs at 2500 uM GlcN6P” value was less than 1e-05 s⁻¹. With C50U C58A C70G the “self-cleavage kobs at 2500 uM GlcN6P” value was 7.55e-05 ± 2.9e-05 s⁻¹. With G51C C67G C71U the “self-cleavage kobs at 2500 uM GlcN6P” value was less than 1e-05 s⁻¹. In the case of G41C G43C U47A A64G, the “self-cleavage kobs at 2500 uM GlcN6P” value is reported as less than 1e-05 s⁻¹. G41U C50G U57C C58U C70U was tested, and the “self-cleavage kobs at 2500 uM GlcN6P” value was less than 1e-05 s⁻¹. With G41U G43C G51U C68G the “self-cleavage kobs at 2500 uM GlcN6P” value was less than 1e-05 s⁻¹. In the case of G41C A48C A64G, the “self-cleavage kobs at 2500 uM GlcN6P” value is reported as less than 1e-05 s⁻¹. In the case of G44U U46G C67A, the “self-cleavage kobs at 2500 uM GlcN6P” value is reported as 0.00376 ± 0.00093 s⁻¹. In the case of A42C U65C C71G, the “self-cleavage kobs at 2500 uM GlcN6P” value is reported as less than 1e-05 s⁻¹. In the case of C50G U56G G59U, the “self-cleavage kobs at 2500 uM GlcN6P” value is reported as 8.66e-05 ± 3.9e-05 s⁻¹. For A48G U69G, the “self-cleavage kobs at 2500 uM GlcN6P” value was 0.000101 ± 3.7e-05 s⁻¹. G44C G51A U55C U56C was tested, and the “self-cleavage kobs at 2500 uM GlcN6P” value was less than 1e-05 s⁻¹. For A48U G51A U57A, the “self-cleavage kobs at 2500 uM GlcN6P” value was less than 1e-05 s⁻¹. With U47G A52C G60C C71A the “self-cleavage kobs at 2500 uM GlcN6P” value was less than 1e-05 s⁻¹. A48G U49G A52U A53G was tested, and the “self-cleavage kobs at 2500 uM GlcN6P” value was less than 1e-05 s⁻¹. In the case of U47A A48C G51U, the “self-cleavage kobs at 2500 uM GlcN6P” value is reported as less than 1e-05 s⁻¹.

Variants of: B1
Test: self-cleavage kobs at 10000 uM GlcN6P; higher = faster cleavage; RNA array
Conditions: with glucosamine-6-phosphate
In short: as §1
In the case of A6U G7C A14G U57C, the “self-cleavage kobs at 10000 uM GlcN6P” value is reported as less than 1e-05 s⁻¹. G7U C34G G59C was tested, and the “self-cleavage kobs at 10000 uM GlcN6P” value was less than 1e-05 s⁻¹. With A12C G41A U46G the “self-cleavage kobs at 10000 uM GlcN6P” value was 0.000334 ± 7.8e-05 s⁻¹. With C10U C16G C61A C71U the “self-cleavage kobs at 10000 uM GlcN6P” value was less than 1e-05 s⁻¹. For G9C U46G A53U U55G, the “self-cleavage kobs at 10000 uM GlcN6P” value was less than 1e-05 s⁻¹. With G9U A14C A36C U46A the “self-cleavage kobs at 10000 uM GlcN6P” value was less than 1e-05 s⁻¹. With C11A G41U G43U G44A G51C G63A the “self-cleavage kobs at 10000 uM GlcN6P” value was less than 1e-05 s⁻¹. For C67A C68U C70U, the “self-cleavage kobs at 10000 uM GlcN6P” value was 6.71e-05 ± 1.9e-05 s⁻¹. In the case of C10A G29U U55G C68G, the “self-cleavage kobs at 10000 uM GlcN6P” value is reported as 3.81e-05 ± 1.8e-05 s⁻¹. A6C U49A was tested, and the “self-cleavage kobs at 10000 uM GlcN6P” value was less than 1e-05 s⁻¹. G7A G9A A53G G60A U65A C67A was tested, and the “self-cleavage kobs at 10000 uM GlcN6P” value was 0.000102 ± 2.7e-05 s⁻¹. In the case of C8U G32A A48U A53U U55A, the “self-cleavage kobs at 10000 uM GlcN6P” value is reported as less than 1e-05 s⁻¹. In the case of A12C A15U G40U, the “self-cleavage kobs at 10000 uM GlcN6P” value is reported as 0.00018 ± 4e-05 s⁻¹. C11A U30G C67A was tested, and the “self-cleavage kobs at 10000 uM GlcN6P” value was 9.25e-05 ± 1.7e-05 s⁻¹. In the case of C10A C58G G60A U69G, the “self-cleavage kobs at 10000 uM GlcN6P” value is reported as 5.7e-05 ± 1.6e-05 s⁻¹. G7U G13U G63U was tested, and the “self-cleavage kobs at 10000 uM GlcN6P” value was less than 1e-05 s⁻¹. For C8A G9A C10U A33G A36G A39U U47C C58A, the “self-cleavage kobs at 10000 uM GlcN6P” value was less than 1e-05 s⁻¹. For A6G G29U G43C C61U C67U, the “self-cleavage kobs at 10000 uM GlcN6P” value was less than 1e-05 s⁻¹. With U45A U55C U57C the “self-cleavage kobs at 10000 uM GlcN6P” value was 0.00033 ± 7.3e-05 s⁻¹. In the case of C8U G41U A48U C71G, the “self-cleavage kobs at 10000 uM GlcN6P” value is reported as less than 1e-05 s⁻¹. With G7A C11G A14C A48G A64G the “self-cleavage kobs at 10000 uM GlcN6P” value was less than 1e-05 s⁻¹. With A6C U31C G63U C71G the “self-cleavage kobs at 10000 uM GlcN6P” value was less than 1e-05 s⁻¹. With C10U G38U U46A C58U the “self-cleavage kobs at 10000 uM GlcN6P” value was less than 1e-05 s⁻¹. For G9C G43C C67U, the “self-cleavage kobs at 10000 uM GlcN6P” value was less than 1e-05 s⁻¹. In the case of C10G C71A, the “self-cleavage kobs at 10000 uM GlcN6P” value is reported as less than 1e-05 s⁻¹. A12C C16A C67U was tested, and the “self-cleavage kobs at 10000 uM GlcN6P” value was 0.000164 ± 3.3e-05 s⁻¹. In the case of G9C C34A U55C, the “self-cleavage kobs at 10000 uM GlcN6P” value is reported as less than 1e-05 s⁻¹. For C11G A39U G44U A48C, the “self-cleavage kobs at 10000 uM GlcN6P” value was less than 1e-05 s⁻¹. For A12C U31A A42G A52G, the “self-cleavage kobs at 10000 uM GlcN6P” value was 0.000429 ± 9.6e-05 s⁻¹. C11U C50G C70G was tested, and the “self-cleavage kobs at 10000 uM GlcN6P” value was 3.88e-05 ± 1.4e-05 s⁻¹. C11U U31C U56C was tested, and the “self-cleavage kobs at 10000 uM GlcN6P” value was 9.92e-05 ± 2.1e-05 s⁻¹. In the case of A48G U69G, the “self-cleavage kobs at 10000 uM GlcN6P” value is reported as 3.66e-05 ± 1.3e-05 s⁻¹. With A12G A36U A48C A53C G66A C70G the “self-cleavage kobs at 10000 uM GlcN6P” value was less than 1e-05 s⁻¹. In the case of A12C A15U A52G, the “self-cleavage kobs at 10000 uM GlcN6P” value is reported as 0.000174 ± 3.6e-05 s⁻¹. For A12C G29C G43C, the “self-cleavage kobs at 10000 uM GlcN6P” value was less than 1e-05 s⁻¹. With G9A A53C G62A C70G the “self-cleavage kobs at 10000 uM GlcN6P” value was less than 1e-05 s⁻¹. A6C G29A C34U G43U G44U was tested, and the “self-cleavage kobs at 10000 uM GlcN6P” value was less than 1e-05 s⁻¹. With A6G C34A A39G the “self-cleavage kobs at 10000 uM GlcN6P” value was less than 1e-05 s⁻¹. In the case of G7A G35A A36G, the “self-cleavage kobs at 10000 uM GlcN6P” value is reported as less than 1e-05 s⁻¹. A6G U31C C34G was tested, and the “self-cleavage kobs at 10000 uM GlcN6P” value was less than 1e-05 s⁻¹. With G7C C68A C71A the “self-cleavage kobs at 10000 uM GlcN6P” value was less than 1e-05 s⁻¹. In the case of A6C G35C A52C G66U, the “self-cleavage kobs at 10000 uM GlcN6P” value is reported as less than 1e-05 s⁻¹. For G7C A14G A39C A48G A53U, the “self-cleavage kobs at 10000 uM GlcN6P” value was less than 1e-05 s⁻¹.
